Consider 1 substance from article doi:10.1101/2024.10.07.617058.

The test concerns the target Twin-Strep-tagged human exocyst Subcomplex-1 (Exoc1:Exoc2:Exoc3:Exoc4) (human) (UniProt Q9NV70). Kind of test: SPR.
Chain of UniProt Q9NV70 (Q9NV70 whole entry, chain 1 of 4): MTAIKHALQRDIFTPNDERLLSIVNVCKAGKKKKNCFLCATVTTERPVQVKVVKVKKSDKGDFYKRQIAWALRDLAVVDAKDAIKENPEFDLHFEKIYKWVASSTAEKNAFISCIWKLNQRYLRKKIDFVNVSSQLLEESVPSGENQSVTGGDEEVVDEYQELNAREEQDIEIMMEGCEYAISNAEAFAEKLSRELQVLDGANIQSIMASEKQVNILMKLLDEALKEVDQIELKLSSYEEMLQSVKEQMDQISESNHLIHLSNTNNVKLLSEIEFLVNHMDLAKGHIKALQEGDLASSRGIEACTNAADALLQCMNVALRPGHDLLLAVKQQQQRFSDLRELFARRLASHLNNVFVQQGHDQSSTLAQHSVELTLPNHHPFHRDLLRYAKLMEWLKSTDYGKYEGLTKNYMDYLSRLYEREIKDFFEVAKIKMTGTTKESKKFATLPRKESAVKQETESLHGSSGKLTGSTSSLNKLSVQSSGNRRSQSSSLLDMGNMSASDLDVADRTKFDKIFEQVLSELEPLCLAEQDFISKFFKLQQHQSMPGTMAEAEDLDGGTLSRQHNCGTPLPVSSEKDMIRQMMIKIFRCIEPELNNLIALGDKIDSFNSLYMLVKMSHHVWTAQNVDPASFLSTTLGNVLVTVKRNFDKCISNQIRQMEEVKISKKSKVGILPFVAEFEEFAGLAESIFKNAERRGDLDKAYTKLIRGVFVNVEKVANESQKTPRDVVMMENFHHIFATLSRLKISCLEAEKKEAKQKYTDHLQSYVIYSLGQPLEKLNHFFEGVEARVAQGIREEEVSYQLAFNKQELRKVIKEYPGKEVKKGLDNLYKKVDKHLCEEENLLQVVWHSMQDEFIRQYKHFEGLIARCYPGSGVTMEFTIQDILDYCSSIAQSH
Chain of UniProt Q9NV70 (Q96KP1 whole entry, chain 2 of 4, further chain): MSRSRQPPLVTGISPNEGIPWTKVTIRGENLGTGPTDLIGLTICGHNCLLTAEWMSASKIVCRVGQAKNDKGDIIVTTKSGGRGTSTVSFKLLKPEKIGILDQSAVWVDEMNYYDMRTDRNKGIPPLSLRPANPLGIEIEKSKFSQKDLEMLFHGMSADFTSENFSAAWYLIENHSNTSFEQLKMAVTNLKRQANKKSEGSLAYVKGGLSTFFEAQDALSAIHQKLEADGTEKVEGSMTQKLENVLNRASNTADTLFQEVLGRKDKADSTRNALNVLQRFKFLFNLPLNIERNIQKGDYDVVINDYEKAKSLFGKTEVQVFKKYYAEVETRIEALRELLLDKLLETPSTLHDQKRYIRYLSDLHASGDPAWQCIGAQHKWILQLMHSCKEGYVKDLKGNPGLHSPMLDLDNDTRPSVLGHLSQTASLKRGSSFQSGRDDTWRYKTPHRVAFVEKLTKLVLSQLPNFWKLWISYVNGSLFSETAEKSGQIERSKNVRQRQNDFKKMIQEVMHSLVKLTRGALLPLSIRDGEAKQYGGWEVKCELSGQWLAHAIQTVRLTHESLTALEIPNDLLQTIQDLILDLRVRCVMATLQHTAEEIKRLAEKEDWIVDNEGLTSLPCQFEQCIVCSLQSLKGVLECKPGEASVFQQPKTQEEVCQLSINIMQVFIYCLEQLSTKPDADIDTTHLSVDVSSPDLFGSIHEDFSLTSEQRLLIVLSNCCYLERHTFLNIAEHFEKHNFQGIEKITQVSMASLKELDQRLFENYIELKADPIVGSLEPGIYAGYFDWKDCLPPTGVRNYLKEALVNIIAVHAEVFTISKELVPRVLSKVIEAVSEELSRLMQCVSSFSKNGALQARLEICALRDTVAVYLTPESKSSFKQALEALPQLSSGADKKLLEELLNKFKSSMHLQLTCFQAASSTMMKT
Chain of UniProt Q9NV70 (O60645 whole entry, chain 3 of 4, further chain): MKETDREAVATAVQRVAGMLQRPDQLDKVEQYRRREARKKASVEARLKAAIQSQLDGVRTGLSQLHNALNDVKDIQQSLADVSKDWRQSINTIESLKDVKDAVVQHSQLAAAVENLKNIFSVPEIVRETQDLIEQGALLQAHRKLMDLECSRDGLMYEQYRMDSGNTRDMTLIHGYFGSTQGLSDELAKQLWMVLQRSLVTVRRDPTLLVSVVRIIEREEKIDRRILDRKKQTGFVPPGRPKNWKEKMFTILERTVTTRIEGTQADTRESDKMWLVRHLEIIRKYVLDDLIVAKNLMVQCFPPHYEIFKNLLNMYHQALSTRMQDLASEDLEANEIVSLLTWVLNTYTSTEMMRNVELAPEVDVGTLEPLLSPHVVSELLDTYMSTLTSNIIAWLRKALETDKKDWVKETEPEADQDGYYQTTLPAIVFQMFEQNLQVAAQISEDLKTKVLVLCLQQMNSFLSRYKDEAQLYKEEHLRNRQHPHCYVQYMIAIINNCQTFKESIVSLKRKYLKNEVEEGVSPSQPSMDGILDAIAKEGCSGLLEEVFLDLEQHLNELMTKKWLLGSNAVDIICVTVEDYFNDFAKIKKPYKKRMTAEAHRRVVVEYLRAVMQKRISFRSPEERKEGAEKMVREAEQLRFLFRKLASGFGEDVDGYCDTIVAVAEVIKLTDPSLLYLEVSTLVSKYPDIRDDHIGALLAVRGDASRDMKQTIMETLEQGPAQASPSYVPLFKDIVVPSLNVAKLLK
Chain of UniProt Q9NV70 (Q96A65 whole entry, chain 4 of 4, further chain): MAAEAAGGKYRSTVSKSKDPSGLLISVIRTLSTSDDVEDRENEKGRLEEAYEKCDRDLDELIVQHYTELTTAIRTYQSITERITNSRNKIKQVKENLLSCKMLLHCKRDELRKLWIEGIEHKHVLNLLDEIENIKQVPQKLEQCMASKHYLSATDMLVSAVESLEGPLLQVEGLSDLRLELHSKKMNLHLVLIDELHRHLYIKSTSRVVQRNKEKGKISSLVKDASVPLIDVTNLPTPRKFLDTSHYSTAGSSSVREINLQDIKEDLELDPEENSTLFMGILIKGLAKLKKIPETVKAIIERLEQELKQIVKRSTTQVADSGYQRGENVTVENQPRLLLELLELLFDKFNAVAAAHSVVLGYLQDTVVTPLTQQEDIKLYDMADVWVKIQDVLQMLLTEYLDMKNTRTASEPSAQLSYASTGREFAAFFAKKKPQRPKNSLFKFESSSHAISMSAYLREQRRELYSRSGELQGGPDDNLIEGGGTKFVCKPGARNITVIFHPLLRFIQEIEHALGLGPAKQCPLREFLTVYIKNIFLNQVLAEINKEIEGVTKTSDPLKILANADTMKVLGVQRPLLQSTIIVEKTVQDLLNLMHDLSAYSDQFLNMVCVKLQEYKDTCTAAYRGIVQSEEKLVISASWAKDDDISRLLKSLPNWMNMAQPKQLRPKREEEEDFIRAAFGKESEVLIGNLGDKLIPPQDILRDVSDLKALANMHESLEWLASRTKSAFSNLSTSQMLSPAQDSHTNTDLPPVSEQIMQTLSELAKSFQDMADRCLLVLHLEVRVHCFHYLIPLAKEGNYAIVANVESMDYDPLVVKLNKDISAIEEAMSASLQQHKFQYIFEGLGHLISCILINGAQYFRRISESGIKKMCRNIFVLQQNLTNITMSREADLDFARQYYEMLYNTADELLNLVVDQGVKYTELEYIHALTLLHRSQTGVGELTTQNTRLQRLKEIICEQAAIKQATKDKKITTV

Usually Kd stands for the concentration at which binding is half-saturated. Low values mean a tighter complex, high ones a looser complex. The substance “human exocyst Subcomplex-2 (Exoc5:Exoc6:Exoc7:Exoc8) (from UniProt O00471 1-708; Q8TAG9 1-804; Q9UPT5 1-735; Q8IYI6 1-725)” came in with a Kd of 0.078 µM.
